How the values were obtained:
Conditions in all cases: ELISA: 20 mM Tris-HCl pH 7.5, 100 mM NaCl, room temperature, 1 h (washes with 0.02% Tween-20); SPR conditions not in the material
[1] = system: BV04-01 scFv VH A23P (mouse (lupus-prone)); assay: SPR
[2] = system: BV04-01 scFv (SCA04-01) (mouse (lupus-prone)); assay: SPR
MRL-4 scFv (mouse) [3] = assay: SPR
[4] = system: MRL-4 scFv VH P23A (mouse); assay: SPR
[5] = system: BV04-01 scFv VH A23P (mouse (lupus-prone)); assay: ELISA
[6] = system: BV04-01 scFv (SCA04-01) (mouse (lupus-prone)); assay: ELISA
MRL-4 scFv (mouse) [7] = assay: ELISA
[8] = system: MRL-4 scFv VH P23A (mouse); assay: ELISA

| Substance | Kd [1] [nM] | Kd [2] [nM] | Kd (MRL-4 scFv (mouse) [3]) [nM] | Kd [4] [nM] | binding signal (% of BV04-01 wild type) [5] | binding signal [6] [%] | binding signal (MRL-4 scFv (mouse) [7]) [%] | binding signal (% of MRL-4 wild type) [8] |
| --- | --- | --- | --- | --- | --- | --- | --- | --- |
| double-stranded DNA fragments (SPR ligand) | 290 | 1.8 | 17 | 8500 |  |  |  |  |
| 254-bp PCR fragment (ELISA) |  |  |  |  | 1.2 | 100 | 100 | 4.6 |

Reference: article PMC3502752
